The target in experiment [1] is EGFR and c-Met on the surface of tumor cells (human) (UniProt P00533). Description: flow cytometry, NCI-H1993 cells; hIgG1 negative control, EC50 could not be fitted.
For experiment [2] the target is unchanged. Put plainly: flow cytometry, NCI-H1975 cells; hIgG1 negative control, EC50 could not be fitted. A general note: A flow cytometer gives signals particle by particle.
Experiment [3] shares this target. Description: cell-based or functional assay.
Experiment [4] shares this target. Put plainly: flow cytometry, A431 cells; hIgG1 negative control, EC50 could not be fitted.

With “hIgG1 (Biointron, Cat. No. B117901) (antibody)”, the Top(MFI) in experiment [1] turned out to be 31200 MFI. In addition, in experiment [2], the Top(MFI) amounted to 38700 MFI. In experiment [3], this substance gave an endocytic activity Top(MFI), A431 cells (negative control) of 118000 MFI; an endocytic activity Top(MFI), NCI-H441 cells (negative control) of 97500 MFI; an endocytic activity Top(MFI), NCI-H1975 cells (negative control) of 110000 MFI. Moreover, in experiment [4], the Top(MFI) was determined as 168000 MFI.

Values taken from patent EP4703390A1.
